Measured values: patent publication US20220402981A1 (Dana-Farber, published 2022)

Experiments:
DCAF15split = target: T1, DCAF15split (human, UniProt Q66K64 30-264; Q66K64 383-600); assay: crystal structure with E7820
T1 construct: range 30-264;range 383-600; DCAF15 as two fragments in the crystal structures (PDB 6Q0R, 6Q0V, 6Q0W); also called Strep II Avi-DCAF15NTD (residues 30-264)-Strep II Avi-DCAF15CTD (residues 383-600); DCAF15-NTD; not shown: N-terminal Strep II Avi tag

full-length human DCAF15 = target: T2, full-length human DCAF15 (human, UniProt Q66K64 1-600); assay: cryo-EM at ~4.4 Å with E7820
T2 construct: mature; As in the cryo-EM and cross-linking complexes; also called full-length DCAF15

B1: His6-RBM39RRM2 (other)
chain: GSAGPMRLYVGSLHFNITEDMLRGIFEPFGRIESIQLMMDSETGRSKGYGFITFSDSECAKKALEQLNGFELAGRPMKVGHVTERTDA
notes: RBM39RRM2 as in the crystals, cryo-EM and cross-linking complexes; not shown: N-terminal His6 tag
B1: binds (DCAF15split); binds (full-length human DCAF15).
